Type in all cases: cell-based, mouse
One assay concerns pZscan4-Emerald ESCs. Briefly: FACS analysis of Zscan4-Emerald ESCs (Emerald-GFP positive cells). As for the experimental part:
(§1) All treatments including APH, HU, UV, ATRi, ATMi and Chk1i were added in to fresh ESC medium and the cells were kept in 37° C. and 3% 02 tension for overnight (16-17 hrs) unless mentioned in each particular result section. APH was used at various concentrations ranging from 0.3 uM to 6 uM that is mentioned in each experiment in order to induce mild to acute replication stress response. Similarly, HU was used at 0.1 mM-3 mM. ATMi (KU-55933) and ATRi (VE 822) were used at the concentration of 10 uM and 1 uM respectively. Moreover, Chk1i (UCN-01) at the concentration of 100 nM was used. UV radiation was performed at the dosage ranging from 2 to 10 J/m2. For induction of ETAA1-AAD expression, Dox was used at the concentration of 1 μg/mL for 48 hrs.
ESCs were fixed and permeabilized using Cytoperm/Cytofix kit (BD Biosciences), and subsequently stained for one hour at room temperature with Alexa Fluor® 647 anti-H2AX-Phosphorylated (Ser139) antibody (Biolegend) or P-CHK1-PE conjugated antibody (cell signaling 12268). Cells were washed and acquired on a FACS Calibur instrument or Attune NxT (Thermo Fisher Scientific). For Emerald-GFP acquisition, cells were trypsinized, collected and subsequently acquired without fixation. Cell cycle profiles were acquired after incubation with DAPI (4′,6-diamidino-2-phenylindole) overnight. […]
In general terms: In flow cytometry, cells or beads pass a laser one at a time.

Assay [1] concerns 2C-like genes (Zscan4, MuERV-L/MERVL, Dux) in ESCs (E14, R1). Nature of the assay: qPCR for 2C-like specific genes in ESCs. To be noted: Dox-inducible expression of ETAA1-AAD. On the procedure:
as §1
RNA was extracted using RNeasy mini kit (QIAGEN), quantified by NanoDrop spectrophotometer and cDNA was prepared from 2 μg total DNA-depleted RNA using SuperScript™ III reverse transcriptase kit (Invitrogen cat #18080-093) following manufacturer's instructions. qPCR assay performed based on standard protocol using 10× SsoFast™ EvaGreen® Supermix or later 1× LightCycler 480 SYBR Green I Master (Roche, 04707516001), 0.5 μM primer mix and 5 ng of cDNA. GAPDH was used as internal control to normalise the qPCR data following ΔΔCt method, 10 μM primer mix and a total amount of cDNA corresponding to 5 ng of starting RNA for each reaction.
A general note: Real-time PCR tracks product formation cycle by cycle.

Assay [2] has as its system ATR pathway (γH2AX, CHK1, CHK2 phosphorylation). Briefly: FACS and immunoblot for ATR pathway activation upon ETAA1-AAD overexpression. To be noted: for number of γH2AX positive cells: versus empty vector (EV) infected ESCs. From the text: ESCs were fixed and permeabilized using Cytoperm/Cytofix kit (BD Biosciences), and subsequently stained for one hour at room temperature with Alexa Fluor® 647 anti-H2AX-Phosphorylated (Ser139) antibody (Biolegend) or P-CHK1-PE conjugated antibody (cell signaling 12268). Cells were washed and acquired on a FACS Calibur instrument or Attune NxT (Thermo Fisher Scientific). For Emerald-GFP acquisition, cells were trypsinized, collected and subsequently acquired without fixation. Cell cycle profiles were acquired after incubation with DAPI (4′,6-diamidino-2-phenylindole) overnight. For Caspase3 FACS analysis after fixation and permeabilization, Cleaved Caspase3 antibody were used for one hr at RT followed by washes and one hr incubation in donkey anti rabbit secondary antibody. […]
The cells were trypsinized and washed with PBS and then lysed in RIPA buffer plus protease/phosphatase inhibitor cocktail (cell signaling, #5872), incubating for 30 minutes on a rotating wheel at +4° C. Lysates were sonicated with a Bioruptor Sonication System (UCD200) at high power for 3 cycles of 30 seconds with one minute breaks. Lysates were centrifuged at 13000 rpm for 20-30 minutes and clear supernatants were transferred to new tubes. The proteins were quantified using Bio-Rad protein assay and following manufacturer's instructions. For the detection of each protein, 35 μg of total protein extracts were loaded. Standard western blot was performed using following antibodies: ATR antibody (Cell Signaling 2790), Phoshpho-Chk1 antibody-S345 (Cell signaling 2348), Phoshpho-Chk1 antibody S317 (cell signaling 12302), Zscan4 antibody (Abcam ab4340), total Chk1 antibody (Santa Cruz 8408) and Chk2 antibody (Millipore 05-649), Anti-P53 (Cell Signalling, 2524S) and Anti-p-P53 (S15) (Cell Signalling, 12571S), Anti-Goat ALexa488 (Thermo Fisher Scientific, A-11055), Anti-Rabbit Cy3 (Jackson ImmunoResearch, 711-165-152), Anti-Mouse Alexa647 (Thermo Fisher Scientific, A-31571). […]

The record followed here is patent US20200131473A1, “METHOD OF GENERATING 2 CELL-LIKE STEM CELLS” (IFOM FONDAZIONE ISTITUTO FIRC DI ONCOLOGIA MOLECOLARE, priority 2017, published 2020).

B1: ETAA1-AAD: ATR activating domain of Ewing's tumor-associated antigen 1, overexpressed in ESCs by lentivirus (SEQ ID NO: 2) (protein)
chain: VRQREQPPTAALCSKSNPEERYETPKRALKMETDSLSSSFSSPNDPDGQNDIFWDQNSPLTKQLGKGRKKQIYTTDSDEISHIVNRIAPQDEKPTTNSMETLDMETWIGETAIPCTPSVAKGKSRAKISCTKLKTQSQEEELMETKLAKQFDKNMETEELDVIQEQNKRNYDFTQ
As to B1, the “Z+ population in ESCs culture” value in the assay with pZscan4-Emerald ESCs (Dox-inducible expression of ETAA1-AAD) is “significant increase”. Also, the “increase in the number of Zscan4-positive population in ESC culture” value in the assay on pZscan4-Emerald ESCs (ETAA1-AAD lentivirus infected Zscan4-Emerald ESCs vs empty vector) is on record as “up to 3 fold”. The “transcription of Zscan4, Dux and MERVL” value in assay [1] is “transcriptional activation of Zscan4, Dux and MERVL”. In addition, in assay [2] (ATR activation through ETAA1 expression), the “phosphorylation of H2AX, CHK1 and CHK2 in ESCs” value was “leads to the phosphorylation of H2AX and CHK1 but not CHK2”. The “number of γH2AX positive cells” value in assay [2] is “increase in the number of γH2AX cells”; in assay [2] (listed as ETAA1-AAD lentivirus), “increase in the number of γH2AX positive cell”.
